This is an account of results in patent US6528270.

The target of the assay is BCR-ABL kinase available in the cell (the BCR-ABL expressing cells). Briefly: 35S-methionine labelling, immunoprecipitation with anti-ABL or anti-GRB-2 antibodies.

The substance “GRB-2 (form and cells not named in the sentence) (from UniProt P62993 1-217)” had a percent of the BCR-ABL kinase available in the cell complexed with GRB-2 of 50 to 90%.
